Experimental findings from US20230212587A1, “Mutant Hydroxyphenylpyruvate Dioxygenase Polypeptide, Encoding Gene Thereof and Use Therefor” (Beijing Dabeinong Biotechnology Co., Ltd., priority 2019, published 2023) are described below.

Positions count from the first letter of the chain named. Names and notes keep the numbering of the source.

B1: N1HPPDm-F372G: Sphingobium sp. N1 HPPD mutant F372G, SEQ ID NO: 337 (protein)
chain: MAADSENPLGLHGFAFAEFTSPDPAAMARQFEQLGFVPAARRKDRGLTLYRQGRIAFILNAGEGEQASAFRAAHGPSANGMAFNVADAKAAHRHAIQSGATDADTAQSALPGTYAIEGIGDSLLYLVDSDPFADWDEVPGWREASAERGVGLDLLDHLTHNVRRGQMRVWSEFYATLFGFEEQKFFDIKGQATGLFSQAMIAPDHEIRIPLNESQDDNSQIEEFIREYNGEGIQHLALTTPDIYSTVEKLRANGVRLQDTIDTYYDLVDERVPGHGEDLARLRKNRILIDGDVHDEGLLLQIGTETMFGPIFFEIIQRKGNEGFGNGNFQVLYESIELDQIRRGVVTVDA
modifications: N1HPPDm-F372G Amino Acid Sequence
B2: GsHPPDm-F372G: Gossypium hirsutum HPPD mutant F372G, SEQ ID NO: 299 (protein)
chain: MVQTNQSGSGNDFKLVGFSNFVRSNPKSDRFTVKRFHHIEFWCTDATNVARRFSWGLGMQFVAKSDLSTGNLTHASYLLRSRDLNFLFTAPYSPSIAVAQNLSPQSTASIPSFDHSLCRSFAATHGLGVRAIAIEVDDAETAFTTSVTHGALPFCPPTPLGDVATIAEVKLYGDVVLRYVSYTTTINSDHDFLPGFEKIEDTLSYPLDYGLRRLDHAVGNVPELGPAVSYVKSFTGFHEFAEFTAEDVGTSESGLNSVVLANNEEMVLLPMNEPVFGTKRKSQIQTYLEHNEGAGVQHLALVSEDIFKTLREMRKRSFVGGFEFMPSPPPTYYKKLKQRAGDILSDEQIKECEELGILVDRDDQGTLLQIGTKPVGDRPTIFIEIIQRIGCMVKDEEGKQYQKGGCGGFGKGNFSELFKSIEEYEKSLEAKQSQNP
modifications: GsHPPDm-F372G Amino Acid Sequence
B3: ZmHPPDm-F372G: Zea mays HPPD mutant F372G, SEQ ID NO: 295 (protein)
chain: MPPTPTAAAAGAAVAAASAAEQAAFRLVGHRNFVRFNPRSDRFHTLAFHHVELWCADAASAAGRFSFGLGAPLAARSDLSTGNSAHASLLLRSGSLSFLFTAPYAHGADAATAALPSFSAAAARRFAADHGLAVRAVALRVADAEEAFRTSVAAGARPAFGPVDLGRGFRLAEVELYGDVVLRYVSYPDGAAGEPFLPGFEGVASPGAADYGLSRFDHIVGNVPELAPAAAYFAGFTGFHEFAEFTTEDVGTAESGLNSMVLANNSENVLLPLNEPVHGTKRRSQIQTFLDHHGGPGVQHMALASDDVLRTLREMQARSAMGGFEFMAPPTSDYYDGVRRRAGDVLTEAQIKECQELGVLVDRDDQGVLLQIGPKPVGDRPTLFLEIIQRIGCMERDEKGQEYQKGGCGGFGKGNFSQLFKSIEDYEKSLEAMQAAAAATAQGS
modifications: ZmHPPDm-F372G Amino Acid Sequence
B4: S1HPPDm-F372G: Solanum lycopersicum HPPD mutant F372G, SEQ ID NO: 331 (protein)
chain: MGKQAAAAADDQQLPGDIEDKFKLVGFNHFVRTNPRSDFFTVKRFHHIEFWCGDATNTARRFSWGLGLPIAAISDLSTGNSVHASYLLRSSSSSQLQFLFTAPYSSAISTSSSASIPTFSVSSHRSFTATHGLGVRAIALEVENSRLAFSTCVAHGAKPVSEPVILNDEVVIAEVHLYGDVVLRFVSFLKDSNCFVFLPGFESVEGAQLDYGIRRLDHAVGNVPELGPVVEYIKSFTGFHEFAEFTAEDVGTAESGLNSVVLANNDETVLFPLNEPVYGTKRKSQIQTYLEHNEGAGVQHLALVTEDIFRTLREMRKRSGIGGFEFMPSPPPTYYKNLKTRAGDILSDEQIQECEELGILVDRDDQGTLLQIGTKPVGDRPTIFLEIIQRIGCMLKNEEGELYQKGGCGGFGKGNFSELFKSIEEYEKTLEAKQNTQVAIA
modifications: SlHPPDm-F372G Amino Acid Sequence
B5: AhHPPDm-F372G: Arachis hypogaea HPPD mutant F372G, SEQ ID NO: 333 (protein)
chain: MATAYTYAHAVTYCNSQHNPPIIPILSTNQHPPRVTLPSSIPHFISTITTFNLKHFPSHSLHTVMVTQTQQNAPSSSPELGFKLVGFKNFVRTNPKSDRFKVIRFHHVEFWCTDATNTASRFSWGLGMPIVAKSDLSTGNAVHASYLLRSGDLNFLFSAPYSASIAGDGASASFPSFSASDCHSFAAKHGLAVRAVAIEVEDASAAFSASVANGAKPVSPAVLLDNSVGFAEVHLYGDVVLRYISYSAPTRESNLNPTLRFLPGFEAVEADSSFPELDYGIRRLDHAVGNVPELAPAVNYLKKFTGFHEFAEFTAEDVGTSESGLNSVVLASNDEMVLLPLNEPVYGTKRKSQIETYLEHNEGAGLQHLALVSEDIFRTLREMRKRSTIGGFQFMPSPPPTYYRNLKKRAGDVLSDEQIKECEELGILVDRDDQGTLLQIGTKPVGDRPTIFIEIIQRIGCMLKDEEGKVYQKGGCGGFGKGNFSELFKSIEEYEKTLESRRTA
modifications: AhHPPDm-F372G Amino Acid Sequence
B6: StHPPDm-F372G: Solanum tuberosum HPPD mutant F372G, SEQ ID NO: 329 (protein)
chain: MGKQAATATATATATADDQQLPADIEDKYKLVGFNNFVRTNPRSDLFNVKRFHHIEFWCGDATNTARRFSWGLGLPIAAKSDLSTGNSVHASYLLRSSSSQLQFLFTAPYSPAISTPSSSSIPTFSVSSHRSFTETHGLGVRAIALEVENSRLAFSTCVSHGAKPVSEPVILNDEVVISEVHLYGDVVLRFVSFLKDSNRFVFLPGFELVEGAQLDYGIRRLDHAVGNVPQLGPVVEYIKSFTGFHEFAEFTAEDVGTAESGLNSVVLANNDETVLFPLNEPVYGTKRKSQIQTYLEHNEGAGVQHLALVTEDIFRTLREMRKRSGIGGFEFMPSPPPTYYKNLKSRAGDILSDEQIKECEELGILVDRDDQGTLLQIGTKPVGDRPTIFLEIIQRIGCMLQNAEGELYQKGGCGGFGKGNFSELFKSIEEYEKTLEAKQNTQVAIA
modifications: StHPPDm-F372G Amino Acid Sequence
B7: CyHPPDm-F372G: Cyanobacteria HPPD mutant F372G, SEQ ID NO: 335 (protein)
chain: MEFDYLHLYVDDYQSAHRCYQRQWGFTCVNKIITDQGITGIYQQGQILLLISASESSLSRYADYLQKHPPGVGEVAWQVANWQKIQHQLSELQIETTPVIHPLTKAEGLTFLLWGDVHHSIYPVRSELNQNKTLHGVGLTTIDHVVLNIAADQFTQASQWYQQVFGWSVQQSFTVNTPHSGLYSEALASANGKVQFNLNCPTNNSSQIQTFLANNHGAGIQHVAFSTTSITRTVAHLRERGVNFLKIPTGYYQQQRNSSYFNYASLDWDTLQCLEILLDDQDNTGERLLLQIGSQPCYGVGTLFWEIIERRHRAKGFGQGNFQALYEAVETLEKQLEVP
modifications: CyHPPDm-F372G Amino Acid Sequence
B8: N2HPPDm-F372G: Sphingobium sp. N2 HPPD mutant F372G, SEQ ID NO: 339 (protein)
chain: MTLFDNPLGLDGFEFVEFSAPAKGMLEPVFAAMGFVMIARHRSKDVQLWRQGGINLIANYEPRSPAAYFAAEHGPSACGMGWRVRNAAKAYELAVERGAEPVDVKTGPMELRLPAIRGIGGSIIYLIDRYEDEDGGLSIYDIDFVYEPGVDRHPEGAGFKIIDHLTHNVYGGRMAHWASFYERVFGFREIRYFDIKGEYTGLTSKAMTAPDGKIRIPLNEEGKAGGGQIEEFLRAYNGEGIQHIAFLCDDLIAAWDKLKALGTPLMTAPPATYYEMLDERLPGHGEPVAELQKRGILLDGSTQQGDPRLLLQIGGQATIGPVFFEFIQRKKDEGFGEGNFTALFESMERDQLRRGTLNAGESA
modifications: N2HPPDm-F372G Amino Acid Sequence
B9: N3HPPDm-F372G: Burkholderia sp. N3 HPPD mutant F372G, SEQ ID NO: 341 (protein)
chain: MQIPNWENPVGTDGFEFIEYTAPDPKALGQLFERMGFTAIARHRHKDVTVYRQGDINFIINAEPHSFAQRFARLHGPSICAIAFRVQDAAKAYQHALELGAWGFDNKTGPMELNIPAIKGIGDSLIYFVDRWRGKNGAQPGAIGDISIYDVDFEPIAGANPNPAGHGLTYIDHLTHNVHRGRMQEWAEFYERLFNFREVRYFDIEGKVTGVKSKAMTSPCGKIRIPINEEGSDTAGQIQEYLDAYHGEGIQHIALGTNDIYGAVDGLRGKEVKLLDTIDTYYELVDRRVPDHGESLDELKKRKILIDGARDDLLLQIGTENQIGPIFFEIIQRKGNQGFGEGNFKALFESIELDQIRRGVVQDKA
modifications: N3HPPDm-F372G Amino Acid Sequence
B10: N4HPPDm-F372G: Burkholderia sp. N4 HPPD mutant F372G, SEQ ID NO: 343 (protein)
chain: B9 chain with H65D, N160T, N258S, N343T
modifications: N4HPPDm-F372G Amino Acid Sequence

For the first test, the system named is Arabidopsis thaliana T1 plants. The test can be described thus: Topramezone tolerance of transgenic Arabidopsis thaliana T1 plants (pesticide damage grade by bleached leaf area, score, resistance evaluation). Type of test: in vivo. To be noted: topramezone 25 g ai/ha (1x); HPPD F372G mutants, Table 6. Put shortly: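 Herbicide tolerance was judged per plant on a bleaching scale (grade 0 no bleaching to grade 3 fully bleached) 7 DAT. Topramezone doses were 0, 25, 50 and 100 g ai/ha on 18-day-old T1 and wild-type plants.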
Turning to B1, the Resistance evaluation entry is listed as “Highly resistant”.
Take B2: the Resistance evaluation result is “Moderately resistant”.
For the molecule B3, the Resistance evaluation result is “Highly resistant”.
As for B4, the Resistance evaluation result is listed as “Poorly resistant”.
B5: the Resistance evaluation result is reported as “Poorly resistant”.
B6: the Resistance evaluation result is on record as “Poorly resistant”.
B7: the Resistance evaluation result is given as “Moderately resistant”.
As to B8, the Resistance evaluation entry was “Highly resistant”.
As for B9, the Resistance evaluation entry was “Highly resistant”.
With B10, the Resistance evaluation entry was “Highly resistant”.

Staying with this test, now noted: topramezone 100 g ai/ha (4x); HPPD F372G mutants, Table 6.
Take B1: the Resistance evaluation result is on record as “Highly resistant”.
B2: the Resistance evaluation result was “Non-resistant”.
Consider B3, for which the Resistance evaluation result is reported as “Moderately resistant”.
Consider B4, for which the Resistance evaluation result was “Non-resistant”.
Turning to B5, the Resistance evaluation result is on record as “Non-resistant”.
In the case of B6, the Resistance evaluation entry was “Non-resistant”.
Consider B7, for which the Resistance evaluation result is recorded as “Non-resistant”.
For B8, the Resistance evaluation result was “Highly resistant”.
On to B9, for which the Resistance evaluation result is “Highly resistant”.
Still for that read-out and setting: the value for B10 was “Highly resistant”.
